Laboratory results reported in US20170210813A1 (Regeneron, published 2017).

T1: Macaca fascicularis PDGFRb.mmh (Macaca fascicularis)
T1 construct: Soluble monomeric construct; also called mfPDGFRb.mmh
T1 chain: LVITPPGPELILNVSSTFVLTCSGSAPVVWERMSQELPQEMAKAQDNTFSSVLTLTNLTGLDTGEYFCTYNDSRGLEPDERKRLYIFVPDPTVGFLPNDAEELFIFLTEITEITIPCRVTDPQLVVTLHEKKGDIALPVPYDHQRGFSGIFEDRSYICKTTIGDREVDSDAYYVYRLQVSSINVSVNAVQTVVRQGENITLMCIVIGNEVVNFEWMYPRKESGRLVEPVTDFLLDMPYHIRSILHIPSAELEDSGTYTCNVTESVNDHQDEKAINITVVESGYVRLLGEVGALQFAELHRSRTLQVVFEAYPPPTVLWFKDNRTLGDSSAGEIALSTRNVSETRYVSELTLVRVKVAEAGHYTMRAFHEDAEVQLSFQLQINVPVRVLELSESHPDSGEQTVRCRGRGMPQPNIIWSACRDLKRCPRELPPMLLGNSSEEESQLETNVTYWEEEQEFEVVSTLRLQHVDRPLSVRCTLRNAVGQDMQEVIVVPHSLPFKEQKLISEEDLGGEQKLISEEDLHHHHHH

T2: human PDGFRb.mFc (human)
T2 construct: Soluble dimeric construct with mouse Fc; also called hPDGFRb.mFc; soluble human PDGFR-beta.mFc
T2 chain: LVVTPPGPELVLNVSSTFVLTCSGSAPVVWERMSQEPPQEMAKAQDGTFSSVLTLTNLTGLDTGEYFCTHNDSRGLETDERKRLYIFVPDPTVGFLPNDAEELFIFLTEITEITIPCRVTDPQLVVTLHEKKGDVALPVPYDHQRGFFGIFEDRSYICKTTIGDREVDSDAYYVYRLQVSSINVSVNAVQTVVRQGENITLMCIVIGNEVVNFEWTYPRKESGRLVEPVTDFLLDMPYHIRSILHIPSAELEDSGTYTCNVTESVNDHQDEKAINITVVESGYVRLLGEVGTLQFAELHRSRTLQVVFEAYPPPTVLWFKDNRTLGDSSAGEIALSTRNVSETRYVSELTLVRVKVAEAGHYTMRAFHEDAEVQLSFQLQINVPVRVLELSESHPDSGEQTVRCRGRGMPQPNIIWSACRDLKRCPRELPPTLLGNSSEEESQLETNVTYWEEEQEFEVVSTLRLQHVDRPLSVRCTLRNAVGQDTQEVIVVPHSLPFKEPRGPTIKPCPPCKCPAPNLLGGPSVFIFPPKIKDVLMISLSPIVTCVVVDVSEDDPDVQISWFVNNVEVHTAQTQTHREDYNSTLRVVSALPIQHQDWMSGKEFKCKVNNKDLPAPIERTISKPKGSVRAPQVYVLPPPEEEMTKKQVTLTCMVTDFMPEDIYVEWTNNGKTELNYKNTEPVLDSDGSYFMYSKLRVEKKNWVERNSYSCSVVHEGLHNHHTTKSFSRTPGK


Columns and labels:
[1] = target: full length human PDGFR-beta on HEK293 cells (human, UniProt P09619 33-1106); experiment: cell-based or functional assay
hPDGFRb.mmh [2] = target: T3, hPDGFRb.mmh (human, UniProt P09619 33-531); experiment: blocking ELISA, biot-hPDGFRb.mmh to coated PDGF-BB
T3 construct: Soluble monomeric construct; also called soluble human PDGFR-beta.mmh
Protocol: The equilibrated PDGFR-beta/antibody solutions were added to ligand-coated plates, allowed to incubate for 1 hr, and washed. Levels of bound biot-hPDGFR-beta.mmh were detected using HRP conjugated streptavidin. Data were analyzed using Prism software and IC₅₀ values were calculated as the amount of antibody required to achieve 50% reduction of hPDGFR-beta-mmh bound to ligand. Maximum blocking values were also calculated and reflect the ability of the antibody to block relative to baseline. The absorbance measured at the constant amount of 250 pM biot-hPDGFR-beta-mmh on the dose curve is defined as 0% blocking and the absorbance with no added PDGFR-beta is defined as 100%. The absorbance of the wells containing the highest antibody concentration determined the maximum blocking percent.

[3] = target: T1, Macaca fascicularis PDGFRb.mmh; experiment: SPR, mAb captured, 25 C
Protocol: (§1) Antibodies, expressed as either mouse Fc (prefix H1M; H2M) or human Fc (prefix H4H), were captured on their respective anti-Fc sensor surfaces (Mab capture format). […] Kinetic association (kₐ) and dissociation (kd) rate constants were determined by processing and fitting the data to a 1:1 binding model using Scrubber 2.0 curve fitting software.

human PDGFRb.mFc = target: T2, human PDGFRb.mFc; experiment: SPR, mAb captured, 25 C
Protocol: as §1

hPDGFRb.mmh [4] = target: T3, hPDGFRb.mmh; experiment: SPR, mAb captured, 25 C
Protocol: as §1

hPDGFRb.mmh [5] = target: T3, hPDGFRb.mmh; experiment: SPR, mAb captured, 37 C
Protocol: as §1

human PDGFRb.hFc [6] = target: T4, human PDGFRb.hFc (human); experiment: SPR, mAb captured, 25 C
T4 construct: Soluble dimeric construct with human Fc; also called hPDGFRb.hFc
Protocol: as §1

human PDGFRb.hFc [7] = target: T4, human PDGFRb.hFc; experiment: SPR, mAb captured, 37 C
Protocol: as §1

[8] = target: T1, Macaca fascicularis PDGFRb.mmh; experiment: SPR, mAb captured, 37 C
Protocol: as §1

| IC50, blocking PDGF-BB (250 pM) activation, SRE-luciferase [1] | IC50, blocking PDGF-DD (400 pM) activation, SRE-luciferase [1] | % Maximum Blocking (hPDGFRb.mmh [2]) | IC50 (hPDGFRb.mmh [2]) | Kd [3] | koff [3] | kon [3] | t1/2 [3] | Kd (human PDGFRb.mFc) | koff (human PDGFRb.mFc) | kon (human PDGFRb.mFc) | t1/2 (human PDGFRb.mFc) | Kd (hPDGFRb.mmh [4]) | koff (hPDGFRb.mmh [4]) | kon (hPDGFRb.mmh [4]) | t1/2 (hPDGFRb.mmh [4]) | Kd (hPDGFRb.mmh [5]) | koff (hPDGFRb.mmh [5]) | kon (hPDGFRb.mmh [5]) | t1/2 (hPDGFRb.mmh [5]) | Binder | other results |
| --- | --- | --- | --- | --- | --- | --- | --- | --- | --- | --- | --- | --- | --- | --- | --- | --- | --- | --- | --- | --- | --- |
| 6.1e-10 M | 8.2e-10 M | 82% | 1.4 nM | 8.5 nM | 0.00175 s⁻¹ | 207000 M⁻¹ s⁻¹ | 0.117 h |  |  |  |  | 4.78 nM | 0.00136 s⁻¹ | 285000 M⁻¹ s⁻¹ | 0.133 h | 13.8 nM | 0.00624 s⁻¹ | 452000 M⁻¹ s⁻¹ | 0.0333 h | H4H3095S (antibody, human IgG4, V domains shown, human IgG4 Fc (H4H prefix)) VH: EVQLVESGGGLVQPGGSLRLSCGASGFTFSSYWMTWVRQAPGKGLEWVGNINQDGSEKYSVDSVKGRFTISRDNAKNSLYLQMNRVRAEDTAVYYCSRDLVPPRQGDNYYYFGMDVWGLGTTVTVSS VL: DIQMTQSPSTLSASVGDRVIITCRASQNINNWLAWYQQQPGKAPKLLIYEASSLESGVPSRFSGSGSGTEFTLTIGSLQPDDFATYYCQHYNSYSRTFGQGTKVDIK | Kd (human PDGFRb.hFc [6]): 0.72 nM; koff (human PDGFRb.hFc [6]): 0.000232 s⁻¹; kon (human PDGFRb.hFc [6]): 321000 M⁻¹ s⁻¹; t1/2 (human PDGFRb.hFc [6]): 0.833 h; Kd (human PDGFRb.hFc [7]): 1.67 nM; koff (human PDGFRb.hFc [7]): 0.00071 s⁻¹; kon (human PDGFRb.hFc [7]): 425000 M⁻¹ s⁻¹; t1/2 (human PDGFRb.hFc [7]): 0.267 h; Kd [8]: 33.3 nM; koff [8]: 0.00797 s⁻¹; kon [8]: 239000 M⁻¹ s⁻¹; t1/2 [8]: 1.5 min |
| 7.9e-09 M | 1.1e-10 M | 82% | 0.09 nM | 3.4 nM | 0.000206 s⁻¹ | 60000 M⁻¹ s⁻¹ | 0.933 h | 0.34 nM | 8.01e-05 s⁻¹ | 236000 M⁻¹ s⁻¹ | 2.4 h | 2.79 nM | 0.000127 s⁻¹ | 45400 M⁻¹ s⁻¹ | 1.52 h | 4.79 nM | 0.000551 s⁻¹ | 115000 M⁻¹ s⁻¹ | 0.35 h | H2M3365N (antibody, V domains shown, mouse Fc (H2M prefix; isotype not spelled out)) VH: EVQLVESGGGLVQPGRSLRLSCAASGFTFDDFAMHWVRQVPGKGLEWVSGISWSSGTIGYVGSVKGRFTISRDNAKNSLYLQMNSLRAEDTAMYFCTKDKAAFHDAFDIWGQGTMVTVSS VL: not shown |  |

Second part, the binder before the results:

| Binder | IC50, blocking PDGF-BB (250 pM) activation, SRE-luciferase [1] | IC50, blocking PDGF-DD (400 pM) activation, SRE-luciferase [1] | % Maximum Blocking (hPDGFRb.mmh [2]) | IC50 (hPDGFRb.mmh [2]) | Kd [3] | koff [3] | kon [3] | t1/2 [3] | Kd (human PDGFRb.mFc) | koff (human PDGFRb.mFc) | kon (human PDGFRb.mFc) | t1/2 (human PDGFRb.mFc) | Kd (hPDGFRb.mmh [4]) | koff (hPDGFRb.mmh [4]) | kon (hPDGFRb.mmh [4]) | t1/2 (hPDGFRb.mmh [4]) | Kd (hPDGFRb.mmh [5]) | koff (hPDGFRb.mmh [5]) | kon (hPDGFRb.mmh [5]) | t1/2 (hPDGFRb.mmh [5]) | other results |
| --- | --- | --- | --- | --- | --- | --- | --- | --- | --- | --- | --- | --- | --- | --- | --- | --- | --- | --- | --- | --- | --- |
| H2M3363N (antibody, V domains shown, mouse Fc (H2M prefix; isotype not spelled out)) VH: QVQVQESGPGLVKPSETLSLTCTVSGDSISSSSYYWGWIRQPPGKGLEWIGSIYYNGISSYNPSLKSRVTISVESSKNQFSLRLASVTAADTALYYCARHRAARRFSEAFDIWGQGTMVTVSS VL: not shown | 7.5e-09 M | 1.9e-10 M | 77% | 4.1 nM | 1.4 nM | 6.85e-05 s⁻¹ | 50000 M⁻¹ s⁻¹ | 2.82 h | 0.0386 nM | 4.03e-06 s⁻¹ | 104000 M⁻¹ s⁻¹ | 47.8 h | 46.8 nM | 0.00333 s⁻¹ | 71100 M⁻¹ s⁻¹ | 0.05 h | 17.6 nM | 0.00503 s⁻¹ | 286000 M⁻¹ s⁻¹ | 0.0333 h |  |
| H1M3305N (antibody, mouse IgG1, V domains shown, human variable domains with mouse constant domains, mouse IgG1 Fc (H1M prefix)) VH: QLQLQESGPGLVKPSETLSLTCIVSGGSISSSSYYWGWIRQPPGKGLEWIGSLYYSGITFYNPSLKSRVTISVDTSKNQFSLTLTSVTAADTAVFYCARHRVMASSPFDHWGQGTLVTVSS VL: not shown | 8.5e-09 M | 1.9e-10 M | 83% | 0.085 nM | 0.816 nM | 4.16e-05 s⁻¹ | 51000 M⁻¹ s⁻¹ | 4.63 h | ≤ 0.00617 nM | ≤ 1e-06 s⁻¹ | 162000 M⁻¹ s⁻¹ | 192 h | 0.808 nM | 2.52e-05 s⁻¹ | 31200 M⁻¹ s⁻¹ | 7.63 h | 0.88 nM | 0.000102 s⁻¹ | 116000 M⁻¹ s⁻¹ | 1.88 h |  |
| H1M3310N (antibody, mouse IgG1, V domains shown, mouse IgG1 Fc (H1M prefix)) VH: EVQLLESGGDLVQPGGSLRLSCAASGITFSSFAMSWVRQAPGKGLEWVSTVSVSAGITYYADSVKGRFTISRDNSKNTLYLQMNSLRAEDTAIYYCAKSSCTTNSCPAYFDYWGLGTLVTVSS VL: not shown | 2.3e-08 M | 2.8e-10 M | 88% | 0.12 nM | ≤ 0.1 nM | 1e-06 s⁻¹ |  | 192 h | ≤ 0.0789 nM | ≤ 1e-06 s⁻¹ | 12700 M⁻¹ s⁻¹ | 192 h | ≤ 0.07 nM | ≤ 1e-06 s⁻¹ | 14000 M⁻¹ s⁻¹ | 192 h | 1.83 nM | 6.46e-05 s⁻¹ | 35300 M⁻¹ s⁻¹ | 2.98 h |  |
| H1M3361N (antibody, mouse IgG1, V domains shown, mouse IgG1 Fc (H1M prefix)) VH: EVQLVESGGGLVQPGGSLRLSCAASGFTFSSYWMTWVRQAPGKGLEWVANIRQDGSDKYYVDSVKGRFTISRDNAKNSLFLQMNSLRAEDTAVYYCARTNGGTYGYNHYYYGMDVWGQGTTVTVSS VL: DIQMTQSPSSLSASVGDRVTITCRASQGIRNDLGWYQLKPGKAPKRLIFAASSLQSGVPSRFSGSGSGTEFTLTISSLQPEDFATYYCLQHNSYPWTFGQGTKVEIK | 6.8e-09 M | 8.4e-11 M | 76% | 0.1 nM | 3.9 nM | 3.89e-05 s⁻¹ | 10000 M⁻¹ s⁻¹ | 4.95 h | ≤ 0.0765 nM | ≤ 1e-06 s⁻¹ | 13100 M⁻¹ s⁻¹ | 192 h | 7.29 nM | 0.00126 s⁻¹ | 173000 M⁻¹ s⁻¹ | 0.15 h | 27.4 nM | 0.00833 s⁻¹ | 304000 M⁻¹ s⁻¹ | 0.0233 h |  |
| H1M3299N (antibody, mouse IgG1, V domains shown, mouse IgG1 Fc (H1M prefix)) VH: QVQLVESGGGVVQPGRSLRLSCAASGFTFSSYGLHWVRQAPGKGLEWVALISNVGSNKYYADSVKGRFTISRDNSKNSLFLQMNSLRAEDTAVYYCAKGADYYYYGMDVWGQGTTVTVSS VL: not shown | 5.6e-10 M | 4.2e-10 M | 67% | 7.6 nM |  |  |  |  | 6.35 nM | 0.000165 s⁻¹ | 25900 M⁻¹ s⁻¹ | 1.17 h | 43.5 nM | 0.00092 s⁻¹ | 21100 M⁻¹ s⁻¹ | 0.217 h | 68.6 nM | 0.00217 s⁻¹ | 31600 M⁻¹ s⁻¹ | 0.0833 h | binding result [3]: no binding |
